B1: African green monkey TRIM5α (Chlorocebus pygerythrus) (natural protein, UniProt Q5C8U4 1-515, looked up)
chain: MASGILVNVKEEVTCPICLELLTEPLSLPCGHSLCQACITANHKESMLYKEEERSCPVCRISYQPENIQPNRHVANIVEKLREVKLSPEEGQKVDHCARHGEKLLLFCQEDSKVICWLCERSQEHRGHHTFLMEEVAQEYHVKLQTALEMLRQKQQEAEKLEADIREEKASWKIQIDYDKTNVSADFEQLREILDWEESNELQNLEKEEEDILKSLTKSETEMVQQTQYMRELISDLEHRLQGSMMELLQGVDGIIKRVENMTLKKPKTFHKNQRRVFRAPDLKGMLDMFRELTDVRRYWVDVTLAPNNISHAVIAEDKRQVSYRNPQIMYQSPGSLFGSLTNFSYCTGVPGSQSITSGKLTNFNYCTGVLGSQSITSGKHYWEVDVSKKSAWILGVCAGFQPDATYNIEQNENYQPKYGYWVIGLQEGDKYSVFQDGSSHTPFAPFIVPLSVIICPDRVGVFVDYEACTVSFFNITNHGFLIYKFSQCSFSKPVFPYLNPRKCTVPMTLCSPSS
notes: also called TRIM5α_(AGMpyg); TRIM5_(AGMpyg)
B2: chimpanzee TRIM5α (Pan troglodytes) (natural protein, chimpanzee (Pan troglodytes), UniProt Q5D7J1 1-493, looked up)
chain: MASGILVNVKEEVTCPICLELLTQPLSLDCGHSFCQACLTANHKKSMLDKGESSCPVCRISYQPENIRPNRHVANIVEKLREVKLSPEGQKVDHCAHHGEKLLLFCQEDGKVICWLCERSQEHRGHHTFLTEEVAREYQVKLQAALEMLRQKQQEAEELEADIREEKASWKTQIQYDKTNVLADFEQLRDILDWEESNELQNLEKEEEDILKSLTKSETEMVQQTQSVRELISDLERRLQGSVMELLQGVDGVIKRMENVTLKKPETFPKNQRRVFRAPDLKGMLEVFRELTDVRRYWVDVTVAPNNISCAVISEDMRQVSSPKPQIIYGARGTRYQTFMNFNYCTGILGSQSITSGKHYWEVDVSKKSAWILGVCAGFQPDAMCNIEKNENYQPKYGYWVIGLEEGVKCSAFQDGSFHTPSAPFIVPLSVIICPDRVGVFLDYEACTVSFFNITNHGSLIYKFSHCSFSQPVFPYLNPRKCGVPMTLCSPSS
notes: also called TRIM5αcpz
B3: owl monkey TRIMCyp (Aotus trivirgatus) (natural protein)
chain: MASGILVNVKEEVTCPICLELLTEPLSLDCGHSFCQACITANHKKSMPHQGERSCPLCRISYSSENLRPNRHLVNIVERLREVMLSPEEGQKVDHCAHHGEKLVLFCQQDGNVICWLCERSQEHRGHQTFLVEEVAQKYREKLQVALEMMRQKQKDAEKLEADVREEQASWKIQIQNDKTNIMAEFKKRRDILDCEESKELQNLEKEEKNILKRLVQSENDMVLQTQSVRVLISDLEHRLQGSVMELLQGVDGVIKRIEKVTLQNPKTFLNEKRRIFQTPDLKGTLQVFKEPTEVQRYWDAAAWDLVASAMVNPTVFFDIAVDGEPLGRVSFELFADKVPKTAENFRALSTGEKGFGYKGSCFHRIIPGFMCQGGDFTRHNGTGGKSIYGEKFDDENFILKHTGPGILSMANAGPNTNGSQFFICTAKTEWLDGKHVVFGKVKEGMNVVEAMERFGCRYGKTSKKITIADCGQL
B4: proteolysis-resistant owl monkey TRIMCyp_(K283D,Q287D) (natural protein)
chain: not shown

Molecular target: the molecule itself
Assay: SEC; final gel filtration step, HiLoad 16/600 Superdex 200 in 20 mM CHES, 100 nM ZnCl2, 1 mM TCEP, pH 10.0, 4°C; oligomer judged from retention time

Stoichiometry N, 2:
B1
B2
B3
B4

Source: paper PMC4936896, “Primate TRIM5 proteins form hexagonal nets on HIV-1 capsids” (eLife, 2016)
